Like-named read-outs stand apart in the source and are kept apart here.
How the values were obtained:
[1] = target: H1 hemagglutinin (A/Puerto Rico/8/34) (influenza A virus A/Puerto Rico/8/34 (H1N1)) (UniProt P03452); experiment: cell-based or functional assay
[2] = target: H3 hemagglutinin of H3N2 strain X-31 (influenza A virus X-31 (H3N2)) (UniProt P03437); experiment: cell-based or functional assay
[3] = target: H1 hemagglutinin (A/Solomon Islands/3/2006) (influenza A virus A/Solomon Islands/3/2006); experiment: ELISA on coated HA, relative Kd (4-parameter fit)
[4] = target: H3 hemagglutinin (A/Brisbane/10/2007) (influenza A virus A/Brisbane/10/2007 (H3N2)); experiment: ELISA on coated HA, relative Kd (4-parameter fit)
[5] = target: H3 hemagglutinin (A/New York/55/2004) (influenza A virus A/New York/55/2004 (H3N2)); experiment: ELISA on coated HA, relative Kd (4-parameter fit)
[6] = target: H3 hemagglutinin (A/Wisconsin/67/2005) (influenza A virus A/Wisconsin/67/2005 (H3N2)); experiment: ELISA on coated HA, relative Kd (4-parameter fit)
[7] = target: H3 hemagglutinin (A/Wyoming/03/2003) (influenza A virus A/Wyoming/03/2003 (H3N2)); experiment: ELISA on coated HA, relative Kd (4-parameter fit)
[8] = target: H5 hemagglutinin (A/Vietnam/1203/2004) (influenza A virus A/Vietnam/1203/2004 (H5N1)); experiment: ELISA on coated HA, relative Kd (4-parameter fit)
[9] = target: H7 hemagglutinin (A/Netherlands/219/2003) (influenza A virus A/Netherlands/219/2003 (H7N7)); experiment: ELISA on coated HA, relative Kd (4-parameter fit)
[10] = target: H9 hemagglutinin (A/Hong Kong/1073/99) (influenza A virus A/Hong Kong/1073/99 (H9)); experiment: ELISA on coated HA, relative Kd (4-parameter fit)
[11] = target: H3 hemagglutinin (A/Brisbane/10/2007) (influenza A virus A/Brisbane/10/2007 (H3N2))
[12] = target: H5 hemagglutinin (A/Vietnam/1203/2004) (influenza A virus A/Vietnam/1203/2004 (H5N1))
[13] = target: H7 hemagglutinin (A/Netherlands/219/2003) (influenza A virus A/Netherlands/219/2003 (H7N7))
[14] = target: H5 hemagglutinin (A/Vietnam/1203/2004) (influenza A virus A/Vietnam/1203/2004 (H5N1)); remark: listed apart in the source
[15] = target: H16 hemagglutinin (A/black headed gull/Mongolia/1756/2006) (influenza A virus A/black headed gull/Mongolia/1756/2006 (H16)); experiment: ELISA on coated HA
[16] = target: H2 hemagglutinin (A/chicken/PA/2004) (influenza A virus A/chicken/PA/2004 (H2)); experiment: ELISA on coated HA
[17] = target: H3 hemagglutinin (A/Brisbane/10/2007) (influenza A virus A/Brisbane/10/2007 (H3N2)); experiment: ELISA on coated HA
[18] = target: H3 hemagglutinin (A/Moscow/10/1999) (influenza A virus A/Moscow/10/1999 (H3)); experiment: ELISA on coated HA
[19] = target: H3 hemagglutinin (A/New York/55/2004) (influenza A virus A/New York/55/2004 (H3N2)); experiment: ELISA on coated HA
[20] = target: H3 hemagglutinin (A/Perth/16/2006) (influenza A virus A/Perth/16/2006 (H3)); experiment: ELISA on coated HA
[21] = target: H3 hemagglutinin (A/Uruguay/716/2007) (influenza A virus A/Uruguay/716/2007 (H3)); experiment: ELISA on coated HA
[22] = target: H3 hemagglutinin (A/Wisconsin/67/2005) (influenza A virus A/Wisconsin/67/2005 (H3N2)); experiment: ELISA on coated HA
[23] = target: H3 hemagglutinin (A/Wyoming/03/2003) (influenza A virus A/Wyoming/03/2003 (H3N2)); experiment: ELISA on coated HA
[24] = target: H5 hemagglutinin (A/Vietnam/1203/2004) (influenza A virus A/Vietnam/1203/2004 (H5N1)); experiment: ELISA on coated HA
[25] = target: H7 hemagglutinin (A/Netherlands/219/2003) (influenza A virus A/Netherlands/219/2003 (H7N7)); experiment: ELISA on coated HA
[26] = target: H9 hemagglutinin (A/Guinea fowl/HK/WF10/99) (influenza A virus A/Guinea fowl/HK/WF10/99 (H9)); experiment: ELISA on coated HA
[27] = target: H9 hemagglutinin (A/Hong Kong/1073/99) (influenza A virus A/Hong Kong/1073/99 (H9)); experiment: ELISA on coated HA
[28] = target: HA from influenza B (B/Wisconsin/1/2010) (influenza B virus B/Wisconsin/1/2010); experiment: ELISA on coated HA
[29] = target: H3 hemagglutinin (A/Brisbane/10/2007) (influenza A virus A/Brisbane/10/2007 (H3N2)); experiment: cell-based or functional assay
[30] = target: H3 hemagglutinin (A/Wyoming/03/2003) (influenza A virus A/Wyoming/03/2003 (H3N2)); experiment: cell-based or functional assay

B1: Ab 037 (antibody, V domains shown)
VH: EVQLLESGGGLVKPGQSLKLSCAASGFTFTSYAMHWVRQPPGKGLEWVAVVSYDGNYKYYADSVQGRFTISRDNSKNTLYLQMNSLRAEDTAVYYCAKDSRLRSLLYFEWLSQGYFNPWGQGTTLTVSS
VL: DIQMTQSPSSLSASVGDRVTITCRSSQSITFNYKNYLGWYQQKPGKAPKLLIYWGSYLESGVPSRFSGSGSGTDFTLTISSLQPEDFATYYCQQHYRTPPSFGQGTKVEIK
[1]
  MIC: 4 µg/mL
[2]
  MIC: 8 µg/mL
[3]
  Kd: 0.075 nM
[4]
  Kd: 0.087 nM
[5]
  Kd: 0.14 nM
[6]
  Kd: 0.313 nM
[7]
  Kd: 0.512 nM
[8]
  Kd: 0.059 nM
[9]
  Kd: 0.114 nM
[10]
  Kd: 0.075 nM

B2: Ab 004 (antibody, V domains shown)
VH: QVQLLETGGGLVKPGQSLKLSCAASGFTFTSYAMHWVRQPPGKGLEWVAVVSYDGNYKYYADSVQGRFTISRDNSKNTLYLQMNSLRAEDTAVYYCAKDSRLRSLLYFEWLSQGYFNPWGQGTTLTVSS
VL: DIVMTQSPDTLAVTLGERATIQCKSSQTVTFNYKNYLAWYQQKPGQPPKLLIYWASTRESGVPDRFSGSGSGTDFTLTITSLQAEDVAVYYCQQHYRTPPSFGQGTKLDIK
[1]
  MIC: 12 µg/mL
[2]
  MIC: 6 µg/mL
[3]
  Kd: < 0.08 nM
[4]
  Kd: < 0.08 nM
[5]
  Kd: 0.066 nM
[6]
  Kd: 0.713 nM
[7]
  Kd: 0.272 nM
[8]
  Kd: 0.06 nM
[9]
  Kd: 0.073 nM
[10]
  Kd: 0.06 nM

B3: Ab 032 (antibody, V domains shown)
VH: QVQLLETGGGLVKPGQSLKLSCAASGFTFTSYAMHWVRQPPGKGLEWVAVVSYDGNYKYYADSVQGRFTISRDNSKNTLYLQMNSLRAEDTAVYYCAKDSRLRSLLYFEWLSQGYFNPWGQGTTLTVSS
VL: DIQMTQSPSSLSASVGDRVTITCRSSQSITFNYKNYLAWYQQKPGKAPKLLIYWGSYLESGVPSRFSGSGSGTDFTLTISSLQPEDFATYYCQQHYRTPPSFGQGTKVEIK
[11]
  Kd: 0.234 nM
  koff: 0.000376 s⁻¹
  kon: 1.61e+06 M⁻¹ s⁻¹
[12]
  kon: 988000 M⁻¹ s⁻¹
[13]
  Kd: 0.145 nM
  koff: 0.000161 s⁻¹
  kon: 1.13e+06 M⁻¹ s⁻¹
[14]
  koff: < 5e-06 s⁻¹
[4]
  Kd: < 0.025 nM
[5]
  Kd: 0.094 nM
[6]
  Kd: 0.208 nM
[7]
  Kd: 0.262 nM
[8]
  Kd: < 0.025 nM
[9]
  Kd: 0.106 nM
[10]
  Kd: 0.079 nM

B4: Ab 005 (antibody, V domains shown)
VH: QVQLLETGGGLVKPGQSLKLSCAASGFTFTSYAMHWVRQPPGKGLEWVAVVSYDGNYKYYADSVQGRFTISRDNSKNTLYLQMNSLRAEDTAVYYCAKDSRLRSLLYFEWLSQGYFNPWGQGTTLTVSS
VL: DIVMTQSPDTVAVTVGERATINCKSSQTVTFNYKNYLAWYQQKPGQPPKLLIYWASTRESGVPDRFSGSGSGTDFTLTISSLQAEDVAVYYCQQHYRTPPSFGQGTKLDIK
[1]
  MIC: 10 µg/mL
[2]
  MIC: 10 µg/mL
[3]
  Kd: < 0.08 nM
[4]
  Kd: 0.052 nM
[5]
  Kd: 0.065 nM
[6]
  Kd: 1.09 nM
[7]
  Kd: 0.311 nM
[8]
  Kd: 0.038 nM
[9]
  Kd: 0.064 nM
[10]
  Kd: 0.035 nM

B5: Ab 038 (antibody, V domains shown)
VH: QVQLLETGGGLVKPGQSLKLSCAASGFTFTSYAMHWVRQPPGKGLEWVAVVSYDGNYKYYADSVQGRFTISRDNSKNTLYLQMNSLRAEDTAVYYCAKDSRLRSLLYFEWLSQGYFNPWGQGTTLTVSS
VL: DIQMTQSPSSLSASVGDRVTITCRSSQSITFNYKNYLGWYQQKPGKAPKLLIYWGSYLESGVPSRFSGSGSGTDFTLTISSLQPEDFATYYCQQHYRTPPSFGQGTKVEIK
[1]
  MIC: 2 µg/mL
[2]
  MIC: 4 µg/mL
[3]
  Kd: 0.064 nM
[4]
  Kd: < 0.025 nM
[5]
  Kd: 0.102 nM
[6]
  Kd: 0.199 nM
[7]
  Kd: 0.515 nM
[8]
  Kd: 0.087 nM
[9]
  Kd: 0.119 nM
[10]
  Kd: < 0.025 nM

B6: Ab 031 (antibody, V domains shown)
VH: EVQLLESGGGLVKPGQSLKLSCAASGFTFTSYAMHWVRQPPGKGLEWVAVVSYDGNYKYYADSVQGRFTISRDNSKNTLYLQMNSLRAEDTAVYYCAKDSRLRSLLYFEWLSQGYFNPWGQGTTLTVSS
VL: DIQMTQSPSSLSASVGDRVTITCRSSQSITFNYKNYLAWYQQKPGKAPKLLIYWGSYLESGVPSRFSGSGSGTDFTLTISSLQPEDFATYYCQQHYRTPPSFGQGTKVEIK
[1]
  MIC: 1 µg/mL
[2]
  MIC: 20 µg/mL
[3]
  Kd: < 0.025 nM
[4]
  Kd: 0.068 nM
[5]
  Kd: 0.059 nM
[6]
  Kd: 0.253 nM
[7]
  Kd: 0.331 nM
[8]
  Kd: < 0.025 nM
[9]
  Kd: 0.091 nM
[10]
  Kd: < 0.025 nM

B7: Ab 044 (antibody, V domains shown)
VH: QVQLLETGGGLVKPGQSLKLSCAASGFTFTSYAMHWVRQPPGKGLEWVAVVSYDGNYKYYADSVQGRFTISRDNSKNTLYLQMNSLRAEDTAVYYCAKDSRLRSLLYFEWLSQGYFNPWGQGTTLTVSS
VL: DIQMTQSPSSLSASVGDRVTITCRSSQSITFDYKNYLAWYQQKPGKAPKLLIYWGSYLESGVPSRFSGSGSGTDFTLTISSLQPEDFATYYCQQHYRTPPSFGQGTKVEIK
[15]
  Kd: < 0.5 nM
[16]
  Kd: < 0.5 nM
[17]
  Kd: < 0.5 nM
[18]
  Kd: < 0.5 nM
[19]
  Kd: < 0.5 nM
[20]
  Kd: < 0.5 nM
[21]
  Kd: < 0.5 nM
[22]
  Kd: < 0.5 nM
[23]
  Kd: < 0.5 nM
[24]
  Kd: < 0.5 nM
[25]
  Kd: < 0.5 nM
[26]
  Kd: < 0.5 nM
[27]
  Kd: < 0.5 nM
[28]
  Kd: < 0.5 nM
[29]
  EC50, Neutral Red (CPE inhibition): 0.3 µg/mL
[30]
  EC50, Neutral Red (CPE inhibition): 6.8 µg/mL
